± gives the uncertainty stated by the source.
Assay: abundance fitness (aPCA) (normalised: wild type 0, dead -1); higher = more abundant; growth selection in yeast, the domain comes from the species named
Conditions: Homo sapiens

**Q.** With “Transcriptional activator Myb G175W, P10242” as the substance, how does the abundance fitness read?
**A.** Its abundance fitness is -0.168 ± 0.077.

**Q.** Which abundance fitness does the source give for “Transcriptional activator Myb G175Y, P10242” here?
**A.** Its abundance fitness is -0.256 ± 0.14.

**Q.** For “Transcriptional activator Myb G197C, P10242”, which abundance fitness is on record?
**A.** The abundance fitness was 0.032 ± 0.098.

**Q.** Which abundance fitness does the source give for “Transcriptional activator Myb G197D, P10242” here?
**A.** The abundance fitness was -0.09 ± 0.13.

**Q.** With “Transcriptional activator Myb G197F, P10242” as the substance, how does the abundance fitness read?
**A.** The abundance fitness was -0.148 ± 0.39.

**Q.** Which abundance fitness does the source give for “Transcriptional activator Myb G197H, P10242” here?
**A.** The abundance fitness was -0.395 ± 0.21.

**Q.** For “Transcriptional activator Myb G197I, P10242”, which abundance fitness is on record?
**A.** The abundance fitness was -0.717 ± 0.24.

**Q.** Which abundance fitness does the source give for “Transcriptional activator Myb G197K, P10242” here?
**A.** Its abundance fitness is -0.124 ± 0.12.

**Q.** For “Transcriptional activator Myb G197L, P10242”, which abundance fitness is on record?
**A.** The abundance fitness was -0.34 ± 0.083.

**Q.** Which abundance fitness does the source give for “Transcriptional activator Myb G197M, P10242” here?
**A.** The abundance fitness was -0.334 ± 0.12.

**Q.** With “Transcriptional activator Myb G197N, P10242” as the substance, how does the abundance fitness read?
**A.** Its abundance fitness is 0.083 ± 0.16.

**Q.** With “Transcriptional activator Myb G197P, P10242” as the substance, how does the abundance fitness read?
**A.** Its abundance fitness is -0.13 ± 0.1.

**Q.** For “Transcriptional activator Myb G197R, P10242”, which abundance fitness is on record?
**A.** Its abundance fitness is -0.087 ± 0.06.

**Q.** Which abundance fitness does the source give for “Transcriptional activator Myb G197S, P10242” here?
**A.** Its abundance fitness is 0.01 ± 0.071.

**Q.** For “Transcriptional activator Myb G197T, P10242”, which abundance fitness is on record?
**A.** The abundance fitness was -0.15 ± 0.092.

**Q.** For “Transcriptional activator Myb G197W, P10242”, which abundance fitness is on record?
**A.** Its abundance fitness is -0.229 ± 0.086.

**Q.** Which abundance fitness does the source give for “Transcriptional activator Myb G197Y, P10242” here?
**A.** The abundance fitness was -0.265 ± 0.14.

**Q.** Which abundance fitness does the source give for “Transcriptional activator Myb H159R, P10242” here?
**A.** The abundance fitness was -0.243 ± 0.18.

**Q.** With “Transcriptional activator Myb H159Y, P10242” as the substance, how does the abundance fitness read?
**A.** The abundance fitness was -0.007 ± 0.12.

**Q.** For “Transcriptional activator Myb H184A, P10242”, which abundance fitness is on record?
**A.** Its abundance fitness is -0.732 ± 0.07.

**Q.** For “Transcriptional activator Myb H184C, P10242”, which abundance fitness is on record?
**A.** The abundance fitness was -0.799 ± 0.084.

**Q.** Which abundance fitness does the source give for “Transcriptional activator Myb H184D, P10242” here?
**A.** The abundance fitness was -0.82 ± 0.077.

**Q.** For “Transcriptional activator Myb H184E, P10242”, which abundance fitness is on record?
**A.** Its abundance fitness is -0.783 ± 0.1.

**Q.** With “Transcriptional activator Myb H184F, P10242” as the substance, how does the abundance fitness read?
**A.** The abundance fitness was -0.488 ± 0.075.

**Q.** With “Transcriptional activator Myb H184G, P10242” as the substance, how does the abundance fitness read?
**A.** Its abundance fitness is -0.855 ± 0.054.

**Q.** With “Transcriptional activator Myb H184L, P10242” as the substance, how does the abundance fitness read?
**A.** Its abundance fitness is -0.623 ± 0.052.

**Q.** Which abundance fitness does the source give for “Transcriptional activator Myb H184M, P10242” here?
**A.** The abundance fitness was -0.623 ± 0.061.

**Q.** For “Transcriptional activator Myb H184N, P10242”, which abundance fitness is on record?
**A.** Its abundance fitness is -0.817 ± 0.067.

**Q.** With “Transcriptional activator Myb H184P, P10242” as the substance, how does the abundance fitness read?
**A.** Its abundance fitness is -0.81 ± 0.098.

**Q.** With “Transcriptional activator Myb H184Q, P10242” as the substance, how does the abundance fitness read?
**A.** Its abundance fitness is -0.598 ± 0.08.

**Q.** For “Transcriptional activator Myb H184R, P10242”, which abundance fitness is on record?
**A.** The abundance fitness was -0.055 ± 0.062.

**Q.** Which abundance fitness does the source give for “Transcriptional activator Myb H184S, P10242” here?
**A.** Its abundance fitness is -0.854 ± 0.067.

**Q.** Which abundance fitness does the source give for “Transcriptional activator Myb H184T, P10242” here?
**A.** The abundance fitness was -1.07 ± 0.095.

**Q.** With “Transcriptional activator Myb H184V, P10242” as the substance, how does the abundance fitness read?
**A.** Its abundance fitness is -0.684 ± 0.048.

**Q.** Which abundance fitness does the source give for “Transcriptional activator Myb H184W, P10242” here?
**A.** The abundance fitness was -0.298 ± 0.073.

**Q.** With “Transcriptional activator Myb H184Y, P10242” as the substance, how does the abundance fitness read?
**A.** The abundance fitness was -0.001 ± 0.052.

**Q.** Which abundance fitness does the source give for “Transcriptional activator Myb I154A, P10242” here?
**A.** The abundance fitness was -0.215 ± 0.054.

**Q.** Which abundance fitness does the source give for “Transcriptional activator Myb I154C, P10242” here?
**A.** The abundance fitness was -0.328 ± 0.093.

**Q.** Which abundance fitness does the source give for “Transcriptional activator Myb I154D, P10242” here?
**A.** Its abundance fitness is -0.5 ± 0.12.

**Q.** For “Transcriptional activator Myb I154E, P10242”, which abundance fitness is on record?
**A.** Its abundance fitness is -0.5 ± 0.076.

**Q.** Which abundance fitness does the source give for “Transcriptional activator Myb I154F, P10242” here?
**A.** The abundance fitness was -0.914 ± 0.13.

**Q.** For “Transcriptional activator Myb I154G, P10242”, which abundance fitness is on record?
**A.** Its abundance fitness is -0.777 ± 0.057.

**Q.** Which abundance fitness does the source give for “Transcriptional activator Myb I154H, P10242” here?
**A.** The abundance fitness was -0.59 ± 0.12.

**Q.** For “Transcriptional activator Myb I154K, P10242”, which abundance fitness is on record?
**A.** The abundance fitness was 0.008 ± 0.095.

**Q.** With “Transcriptional activator Myb I154L, P10242” as the substance, how does the abundance fitness read?
**A.** Its abundance fitness is -0.187 ± 0.055.

**Q.** For “Transcriptional activator Myb I154M, P10242”, which abundance fitness is on record?
**A.** The abundance fitness was -0.296 ± 0.085.

**Q.** Which abundance fitness does the source give for “Transcriptional activator Myb I154N, P10242” here?
**A.** The abundance fitness was -1.14 ± 0.3.

**Q.** Which abundance fitness does the source give for “Transcriptional activator Myb I154P, P10242” here?
**A.** The abundance fitness was -0.807 ± 0.12.

**Q.** With “Transcriptional activator Myb I154Q, P10242” as the substance, how does the abundance fitness read?
**A.** The abundance fitness was -0.216 ± 0.11.

**Q.** With “Transcriptional activator Myb I154R, P10242” as the substance, how does the abundance fitness read?
**A.** Its abundance fitness is -0.23 ± 0.046.

**Q.** Which abundance fitness does the source give for “Transcriptional activator Myb I154S, P10242” here?
**A.** Its abundance fitness is -0.527 ± 0.062.

**Q.** With “Transcriptional activator Myb I154T, P10242” as the substance, how does the abundance fitness read?
**A.** Its abundance fitness is -0.185 ± 0.077.

**Q.** Which abundance fitness does the source give for “Transcriptional activator Myb I154V, P10242” here?
**A.** Its abundance fitness is -0.03 ± 0.05.

**Q.** With “Transcriptional activator Myb I154Y, P10242” as the substance, how does the abundance fitness read?
**A.** The abundance fitness was -0.65 ± 0.13.

**Q.** With “Transcriptional activator Myb I155A, P10242” as the substance, how does the abundance fitness read?
**A.** Its abundance fitness is -0.503 ± 0.065.

**Q.** For “Transcriptional activator Myb I155C, P10242”, which abundance fitness is on record?
**A.** The abundance fitness was -0.346 ± 0.095.

**Q.** With “Transcriptional activator Myb I155D, P10242” as the substance, how does the abundance fitness read?
**A.** The abundance fitness was -0.779 ± 0.15.

**Q.** With “Transcriptional activator Myb I155E, P10242” as the substance, how does the abundance fitness read?
**A.** The abundance fitness was -0.521 ± 0.092.

**Q.** For “Transcriptional activator Myb I155F, P10242”, which abundance fitness is on record?
**A.** The abundance fitness was -0.467 ± 0.14.

**Q.** For “Transcriptional activator Myb I155G, P10242”, which abundance fitness is on record?
**A.** Its abundance fitness is -0.894 ± 0.064.

**Q.** With “Transcriptional activator Myb I155H, P10242” as the substance, how does the abundance fitness read?
**A.** The abundance fitness was -1.04 ± 0.21.

**Q.** For “Transcriptional activator Myb I155K, P10242”, which abundance fitness is on record?
**A.** Its abundance fitness is -0.736 ± 0.11.

**Q.** Which abundance fitness does the source give for “Transcriptional activator Myb I155L, P10242” here?
**A.** The abundance fitness was -0.068 ± 0.069.

**Q.** For “Transcriptional activator Myb I155M, P10242”, which abundance fitness is on record?
**A.** Its abundance fitness is -0.178 ± 0.12.

**Q.** For “Transcriptional activator Myb I155N, P10242”, which abundance fitness is on record?
**A.** The abundance fitness was -0.645 ± 0.17.

**Q.** Which abundance fitness does the source give for “Transcriptional activator Myb I155P, P10242” here?
**A.** The abundance fitness was -0.945 ± 0.14.

**Q.** Which abundance fitness does the source give for “Transcriptional activator Myb I155Q, P10242” here?
**A.** Its abundance fitness is -0.786 ± 0.13.

**Q.** For “Transcriptional activator Myb I155R, P10242”, which abundance fitness is on record?
**A.** The abundance fitness was -0.935 ± 0.067.

**Q.** Which abundance fitness does the source give for “Transcriptional activator Myb I155S, P10242” here?
**A.** The abundance fitness was -0.916 ± 0.13.

**Q.** With “Transcriptional activator Myb I155T, P10242” as the substance, how does the abundance fitness read?
**A.** The abundance fitness was -0.535 ± 0.083.

**Q.** With “Transcriptional activator Myb I155V, P10242” as the substance, how does the abundance fitness read?
**A.** Its abundance fitness is -0.187 ± 0.075.

**Q.** Which abundance fitness does the source give for “Transcriptional activator Myb I155Y, P10242” here?
**A.** Its abundance fitness is -1.21 ± 0.21.

**Q.** With “Transcriptional activator Myb I169A, P10242” as the substance, how does the abundance fitness read?
**A.** Its abundance fitness is -0.477 ± 0.1.

**Q.** For “Transcriptional activator Myb I169C, P10242”, which abundance fitness is on record?
**A.** Its abundance fitness is -0.521 ± 0.14.

**Q.** With “Transcriptional activator Myb I169D, P10242” as the substance, how does the abundance fitness read?
**A.** Its abundance fitness is -0.679 ± 0.13.

**Q.** With “Transcriptional activator Myb I169E, P10242” as the substance, how does the abundance fitness read?
**A.** Its abundance fitness is -0.641 ± 0.12.

**Q.** For “Transcriptional activator Myb I169F, P10242”, which abundance fitness is on record?
**A.** The abundance fitness was -0.516 ± 0.12.

**Q.** With “Transcriptional activator Myb I169G, P10242” as the substance, how does the abundance fitness read?
**A.** Its abundance fitness is -0.681 ± 0.071.

From the Human Domainome abundance scans (Beltran et al. 2025)
